Measurements: US12338483

T1: GzmB/MMP AND-gate protease activity sensor
T1 chain: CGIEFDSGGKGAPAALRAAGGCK


Molecular target: T1, GzmB/MMP AND-gate protease activity …

Row | Protein | fluorescent signal in a cleavage assay (AND-gate sensor with GzmB and a second protease)
1 | West Nile Virus NS3 protease (protein) GGVLWDTPSPKEYKKGDTTTGVYRIMTRGLLGSYQAGAGVMVEGVFHTLWHTTKGAALMSGEGRLDPYWGSVKEDRLCYGGPWKLQHKWNGHDEVQMIVVEPGKNVKNVQTKPGVFKTPEGEIGAVTLDYPTGTSGSPIVDKNGDVIGLYGNGVIMPNGSYISAIVQGERMEEPAPAGFEPEML | The sensor produced low signals with the viral proteases compared to MMP8
2 | Tobacco Etch Virus protease (protein) GESLFKGPRDYNPISSTICHLTNESDGHTTSLYGIGFGPFIITNKHLFRRNNGTLLVQSLHGVFKVKNTTTLQQHLIDGRDMIIIRMPKDFPPFPQKLKFREPQREERICLVTTNFQTKSMSSMVSDTSCTFPSSDGIFWKHWIQTKDGQCGSPLVSTRDGFIVGIHSASNFTNTNNYFTSVPKNFMELLTNQEAQQWVSGWRLNADSVLWGGHKVFMSKPEEPFQPVKEATQLMNELVYSQ | The sensor produced low signals with the viral proteases compared to MMP8
